Where a chain is given by its changes, count along the chain named. In names and notes the source's numbering stands.
B1: GFP-JIP1-WT, Q9WVI9-1 V581A (protein)
chain: MAERESGLGGGAASPPAASPFLGLHIASPPNFRLTHDISLEEFEDEDLSEITDECGISLQCKDTLSLRPPRAGLLSAGSSGSAGSRLQAEMLQMDLIDAAGDTPGAEDDEEEEDDELAAQRPGVGPPKAESNQDPAPRSQGQGPGTGSGDTYRPKRPTTLNLFPQVPRSQDTLNNNSLGKKHSWQDRVSRSSSPLKTGEQTPPHEHICLSDELPPQGSPVPTQDRGTSTDSPCRRSAATQMAPPSGPPATAPGGRGHSHRDRIHYQADVRLEATEEIYLTPVQRPPDPAEPTSTFMPPTESRMSVSSDPDPAAYSVTAGRPHPSISEEDEGFDCLSSPERAEPPGGGWRGSLGEPPPPPRASLSSDTSALSYDSVKYTLVVDEHAQLELVSLRPCFGDYSDESDSATVYDNCASASSPYESAIGEEYEEAPQPRPPTCLSEDSTPDEPDVHFSKKFLNVFMSGRSRSSSAESFGLFSCVINGEEHEQTHRAIFRFVPRHEDELELEVDDPLLVELQAEDYWYEAYNMRTGARGVFPAYYAIEVTKEPEHMAALAKNSDWIDQFRVKFLGSVQVPYHKGNDALCAAMQKIATTRRLTVHFNPPSSCVLEISVRGVKIGVKADDALEAKGNKCSHFFQLKNISFCGYHPKNNKYFGFITKHPADHRFACHVFVSEDSTKALAESVGRAFQQFYKQFVEYTCPTEDIYLE
B2: GFP-JIP1-WT, Q9WVI9-1 F687V (protein)
chain: B1 chain with A581V, F687V
B3: GFP-JIP1-WT, Q9WVI9-1 F642V (protein)
chain: B1 chain with A581V, F642V

The binders below were run against kinesin-1 (endogenous, Neuro2a), Q61768;O88447 (assay: co-immunoprecipitation with anti-GFP antibody, western blot for KHC, quantified). Settings: chain shown with the change, lysates of Neuro2a cells expressing GFP-JIP1 constructs, kinesin-1 signal normalized to precipitated GFP-JIP1, n > 3.
Sequence of kinesin-1 (endogenous, Neuro2a), Q61768;O88447 (chain, as listed by the source, chain 1 of 2): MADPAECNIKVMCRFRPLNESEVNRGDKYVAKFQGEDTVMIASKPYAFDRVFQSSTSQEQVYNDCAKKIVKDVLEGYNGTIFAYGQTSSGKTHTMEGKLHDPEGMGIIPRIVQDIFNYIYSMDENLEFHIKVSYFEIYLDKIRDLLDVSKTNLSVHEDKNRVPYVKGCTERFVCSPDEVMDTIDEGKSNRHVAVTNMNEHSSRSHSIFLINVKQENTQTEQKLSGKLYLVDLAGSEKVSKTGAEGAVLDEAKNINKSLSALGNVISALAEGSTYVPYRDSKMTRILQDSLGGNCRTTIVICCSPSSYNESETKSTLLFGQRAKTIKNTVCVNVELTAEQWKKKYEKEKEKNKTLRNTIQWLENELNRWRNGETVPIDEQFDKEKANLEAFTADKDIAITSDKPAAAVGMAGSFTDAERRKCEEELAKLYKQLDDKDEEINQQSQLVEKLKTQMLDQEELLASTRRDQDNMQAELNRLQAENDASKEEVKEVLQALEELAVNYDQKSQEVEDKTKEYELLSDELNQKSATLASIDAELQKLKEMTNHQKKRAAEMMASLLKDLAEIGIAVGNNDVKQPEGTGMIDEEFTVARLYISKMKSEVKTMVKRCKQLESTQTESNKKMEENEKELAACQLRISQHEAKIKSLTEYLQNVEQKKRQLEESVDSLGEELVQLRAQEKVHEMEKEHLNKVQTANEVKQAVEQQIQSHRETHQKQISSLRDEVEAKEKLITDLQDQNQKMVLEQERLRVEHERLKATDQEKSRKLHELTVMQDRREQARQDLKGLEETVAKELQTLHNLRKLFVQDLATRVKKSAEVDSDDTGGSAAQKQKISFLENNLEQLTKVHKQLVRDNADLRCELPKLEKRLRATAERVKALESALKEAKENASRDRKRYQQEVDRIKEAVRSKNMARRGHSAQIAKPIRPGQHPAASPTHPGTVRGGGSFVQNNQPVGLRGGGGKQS
Sequence of kinesin-1 (endogenous, Neuro2a), Q61768;O88447 (chain, as listed by the source, chain 2 of 2): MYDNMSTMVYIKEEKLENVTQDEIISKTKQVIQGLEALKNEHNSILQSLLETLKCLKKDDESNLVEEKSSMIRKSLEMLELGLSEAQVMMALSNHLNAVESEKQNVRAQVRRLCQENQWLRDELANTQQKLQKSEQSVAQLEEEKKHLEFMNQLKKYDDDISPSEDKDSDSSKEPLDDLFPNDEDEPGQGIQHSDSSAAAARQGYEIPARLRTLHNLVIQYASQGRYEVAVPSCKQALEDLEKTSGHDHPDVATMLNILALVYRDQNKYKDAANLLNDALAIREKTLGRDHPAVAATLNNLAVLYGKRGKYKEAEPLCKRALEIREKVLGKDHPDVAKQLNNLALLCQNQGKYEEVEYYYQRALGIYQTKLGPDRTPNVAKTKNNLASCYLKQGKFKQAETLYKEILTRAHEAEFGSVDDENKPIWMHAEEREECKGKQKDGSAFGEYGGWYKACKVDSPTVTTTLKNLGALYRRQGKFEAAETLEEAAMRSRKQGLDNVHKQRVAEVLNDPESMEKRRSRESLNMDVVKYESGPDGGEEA

Point of comparison: B3, percent of parent 3.7. Against it:
- B1 — higher, 13.4
- B2 — higher, 25.4

Source: PMC3599065
